Results published in the supplement of paper PMC10126150.
± gives the standard deviation of the averaged measurements.

System: ATP
Assay: switch fluorescence ratio, 500 uM ATP over buffer (Cy3 cluster intensity, sum of 5 cycles each) (fold (ratio)); higher = stronger signal-on switching upon ATP binding; sequences stand for … in TCGTCGGCAGCGTCAGATGTGTATAAGAGACAGTTTTTTTTTTTTTTTTTTTTTTTTT…TC
Conditions: aptamer strand: ATP DNA aptamer (quencher-CACCTGGGGGAGTATTGCGGAGGAAGG + anchor), 100 nM annealed; ATP concentration: 500 uM
Summary of the method: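 Switching-strand clusters labelled with Cy3 on a modified Illumina MiSeq flow-cell were annealed to 100 nM quencher-labelled ATP aptamer, imaged in selection buffer, and re-imaged after 15 min with 500 uM ATP at 22 °C. This was done over five cycles with NaOH stripping and re-annealing in between. The fluorescence ratio is summed target-cycle over summed buffer-cycle Cy3 intensity per cluster, averaged per switch-domain sequence, excluding clusters outside 100-1000 RFU.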
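Also: ATP exposure 15 min at 22 °C before imaging.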

Row | Sequence | switch fluorescence ratio
1 | TTTTATGTGT | 0.992 ± 0.035
2 | TTTTATGTTC | 1.01 ± 0.018
3 | TTTTATTAAA | 1 ± 0.031
4 | TTTTATTATG | 1 ± 0.022
5 | TTTTATTCAG | 1 ± 0.03
6 | TTTTATTTGC | 1.01 ± 0.024
7 | TTTTATTTTC | 0.993 ± 0.027
8 | TTTTCAAACC | 0.9953 ± 0.0034
9 | TTTTCAAATC | 1.016 ± 0.0075
10 | TTTTCAACCA | 1.06 ± 0.043
11 | TTTTCAAGAG | 1.019 ± 0.01
12 | TTTTCAAGGA | 0.993 ± 0.07
13 | TTTTCAAGTG | 1 ± 0.029
14 | TTTTCAATCG | 1.01 ± 0.045
15 | TTTTCAATTT | 0.9758 ± 0.0064
16 | TTTTCACAAT | 1.17 ± 0.21
17 | TTTTCACGTT | 1.07 ± 0.095
18 | TTTTCACTTC | 1.03 ± 0.069
19 | TTTTCAGTGG | 1.02 ± 0.021
20 | TTTTCAGTGT | 0.996 ± 0.029
21 | TTTTCATATC | 1.04 ± 0.025
22 | TTTTCATCAT | 1.01 ± 0.031
23 | TTTTCATTCT | 1.01 ± 0.013
24 | TTTTCCAGGG | 1.22 ± 0.18
25 | TTTTCCATTA | 1 ± 0.044
26 | TTTTCCCTGC | 1.24 ± 0.11

Row | Sequence | switch fluorescence ratio
27 | TTTTCCGTTT | 1.02 ± 0.032
28 | TTTTCCT | 1.04 ± 0.02
29 | TTTTCGAAGC | 2.08 ± 1.5
30 | TTTTCGAAGG | 1.005 ± 0.0028
31 | TTTTCGAGAG | 1 ± 0.026
32 | TTTTCGATAG | 1 ± 0.013
33 | TTTTCGGATT | 0.9845 ± 0.0054
34 | TTTTCGGCGT | 1.01 ± 0.01
35 | TTTTCGGCTG | 0.943 ± 0.11
36 | TTTTCGGTCA | 0.976 ± 0.026
37 | TTTTCGGTCT | 0.994 ± 0.017
38 | TTTTCGGTGA | 0.9713 ± 0.0057
39 | TTTTCGGTGC | 1.06 ± 0.1
40 | TTTTCGTATG | 1 ± 0.053
41 | TTTTCGTTTC | 1.01 ± 0.033
42 | TTTTCTACGG | 0.989 ± 0.02
43 | TTTTCTACTT | 0.999 ± 0.027
44 | TTTTCTATAT | 1.01 ± 0.065
45 | TTTTCTGTGT | 0.9398 ± 0.0077
46 | TTTTCTTAGG | 1.08 ± 0.14
47 | TTTTCTTCTT | 1.02 ± 0.068
48 | TTTTCTTTAT | 1.03 ± 0.036
49 | TTTTGAAAAA | 1 ± 0.061
50 | TTTTGAAAGA | 1.01 ± 0.062
51 | TTTTGAAAGT | 1.07 ± 0.14
52 | TTTTGAATAA | 0.9685 ± 0.0049

Row | Sequence | switch fluorescence ratio
53 | TTTTGACCGC | 1.09 ± 0.061
54 | TTTTGACTGT | 0.966 ± 0.015
55 | TTTTGAGATC | 1.04 ± 0.045
56 | TTTTGAGGAG | 0.9807 ± 0.0038
57 | TTTTGAGGTT | 0.983 ± 0.034
58 | TTTTGAGTGA | 0.954 ± 0.041
59 | TTTTGAGTGT | 0.995 ± 0.051
60 | TTTTGATAGA | 1 ± 0.058
61 | TTTTGATATA | 0.9989 ± 0.0085
62 | TTTTGATCAA | 1.01 ± 0.02
63 | TTTTGATCGA | 1.03 ± 0.11
64 | TTTTGATCGG | 0.982 ± 0.037
65 | TTTTGATGAT | 1.02 ± 0.013
66 | TTTTGATGTA | 0.977 ± 0.019
67 | TTTTGATTTA | 1 ± 0.053
68 | TTTTGATTTT | 1.02 ± 0.041
69 | TTTTGCATTA | 1.33 ± 0.5
70 | TTTTGCCCGG | 1.01 ± 0.033
71 | TTTTGCGCGA | 1.09 ± 0.095
72 | TTTTGCGGTT | 0.998 ± 0.038
73 | TTTTGCTCAA | 0.996 ± 0.011
74 | TTTTGCTTCT | 1.03 ± 0.02
75 | TTTTGGAAAA | 1.02 ± 0.017
76 | TTTTGGAAGA | 0.983 ± 0.039
77 | TTTTGGAAGG | 1.02 ± 0.0083
78 | TTTTGGAATA | 1.02 ± 0.059

Row | Sequence | switch fluorescence ratio
79 | TTTTGGAGGG | 1.01 ± 0.034
80 | TTTTGGCCAG | 0.991 ± 0.061
81 | TTTTGGCCTG | 1.02 ± 0.038
82 | TTTTGGCTAA | 1.01 ± 0.022
83 | TTTTGGCTGG | 1.01 ± 0.052
84 | TTTTGGCTGT | 1.09 ± 0.25
85 | TTTTGGGA | 1.01 ± 0.064
86 | TTTTGGGAAT | 1.04 ± 0.052
87 | TTTTGGGCCT | 1.042 ± 0.0088
88 | TTTTGGGTTC | 1.03 ± 0.07
89 | TTTTGGGTTT | 1.02 ± 0.086
90 | TTTTGGTCTG | 1.01 ± 0.031
91 | TTTTGGTTAC | 1.04 ± 0.055
92 | TTTTGGTTGA | 0.977 ± 0.025
93 | TTTTGGTTTT | 1 ± 0.039
94 | TTTTGTAATG | 0.991 ± 0.035
95 | TTTTGTAGCA | 1.1 ± 0.03
96 | TTTTGTATGG | 0.9893 ± 0.0079
97 | TTTTGTATTG | 0.98 ± 0.024
98 | TTTTGTCAGG | 0.993 ± 0.0079
99 | TTTTGTGATT | 0.984 ± 0.013
100 | TTTTGTGGGG | 0.999 ± 0.037
101 | TTTTGTGTTG | 0.996 ± 0.013
102 | TTTTGTTAAA | 1.01 ± 0.028
103 | TTTTGTTACA | 1.011 ± 0.0029
104 | TTTTGTTAGG | 0.98 ± 0.01

Row | Sequence | switch fluorescence ratio
105 | TTTTGTTGCA | 1.038 ± 0.0056
106 | TTTTGTTTAC | 1.01 ± 0.028
107 | TTTTGTTTGC | 1.02 ± 0.03
108 | TTTTTAAAAG | 0.988 ± 0.011
109 | TTTTTAAACT | 0.9921 ± 0.0076
110 | TTTTTAAATT | 0.997 ± 0.025
111 | TTTTTAACAC | 1.02 ± 0.021
112 | TTTTTAACGC | 1.3 ± 0.29
113 | TTTTTAAGAT | 0.995 ± 0.035
114 | TTTTTAAGGG | 0.996 ± 0.032
115 | TTTTTACATT | 0.99 ± 0.032
116 | TTTTTACTAG | 1.007 ± 0.0023
117 | TTTTTACTTT | 1.05 ± 0.17
118 | TTTTTAGGGT | 1 ± 0.073
119 | TTTTTAGGTA | 0.992 ± 0.017
120 | TTTTTAGTCG | 1 ± 0.036
121 | TTTTTAGTGT | 1.01 ± 0.035
122 | TTTTTAGTTT | 0.987 ± 0.028
123 | TTTTTATACT | 1.02 ± 0.027
124 | TTTTTATAGG | 1.008 ± 0.0041
125 | TTTTTATTA | 1.001 ± 0.0052
126 | TTTTTATTTG | 0.995 ± 0.05
127 | TTTTTCAAAA | 1.029 ± 0.0063
128 | TTTTTCACGA | 1.03 ± 0.019
129 | TTTTTCACGG | 0.999 ± 0.034
130 | TTTTTCACGT | 1.02 ± 0.029

Row | Sequence | switch fluorescence ratio
131 | TTTTTCACTG | 1 ± 0.052
132 | TTTTTCAGCA | 1.04 ± 0.029
133 | TTTTTCAGCT | 1.02 ± 0.012
134 | TTTTTCATAT | 1.08 ± 0.2
135 | TTTTTCATCA | 0.982 ± 0.036
136 | TTTTTCATGG | 1 ± 0.031
137 | TTTTTCCAAG | 1.02 ± 0.011
138 | TTTTTCCCCG | 1.33 ± 0.6
139 | TTTTTCCGCG | 1.128 ± 0.0084
140 | TTTTTCCTGA | 1.02 ± 0.011
141 | TTTTTCGCCT | 1.01 ± 0.029
142 | TTTTTCGCGG | 1.01 ± 0.015
143 | TTTTTCGCTG | 1.03 ± 0.022
144 | TTTTTCGGCG | 1.01 ± 0.029
145 | TTTTTCGGG | 0.996 ± 0.014
146 | TTTTTCGGGA | 1 ± 0.023
147 | TTTTTCGGTG | 1.04 ± 0.11
148 | TTTTTCGTAA | 1.04 ± 0.061
149 | TTTTTCGTGA | 1.13 ± 0.15
150 | TTTTTCTAAG | 1.014 ± 0.007
151 | TTTTTCTAAT | 1.03 ± 0.071
152 | TTTTTCTGGT | 1.01 ± 0.075
153 | TTTTTGACGG | 1 ± 0.033
